Measured values: patent publication US20180071366A1
Numbered stars: 1 amine (or outer) side, 2 acyl side, 3 side chain; on linkers, the order of the positions; unused ones are H or OH. Bridge positions count the residues as written; N and C are the ends. Square brackets hold non-standard residues; d marks the D form. * marks the point of attachment. C20 diacid = O=C(O)CCCCCCCCCCCCCCCCCCC(=O)*; γGlu = O=C(O)[C@H](CCC(=O)[*:2])N[*:1]; Hyp = O=C(O)[C@@H]1C[C@@H](O)CN1; NMeI = CC[C@H](C)[C@H](NC)C(=O)O; Aad = N[C@@H](CCCC(=O)O)C(=O)O; Orn = NCCC[C@H](N)C(=O)O; Sar = CNCC(=O)O

Experiments:
[1] = molecular target: recombinant human calcitonin receptor (hCT-R) (human), P30988; assay: cell-based or functional assay
[2] = molecular target: recombinant human amylin 3 receptor (hAMYR3) (human), P30988; assay: cell-based or functional assay
Chain of recombinant human amylin 3 receptor (hAMYR3) (human), P30988 (P30988 25-474, chain 1 of 2): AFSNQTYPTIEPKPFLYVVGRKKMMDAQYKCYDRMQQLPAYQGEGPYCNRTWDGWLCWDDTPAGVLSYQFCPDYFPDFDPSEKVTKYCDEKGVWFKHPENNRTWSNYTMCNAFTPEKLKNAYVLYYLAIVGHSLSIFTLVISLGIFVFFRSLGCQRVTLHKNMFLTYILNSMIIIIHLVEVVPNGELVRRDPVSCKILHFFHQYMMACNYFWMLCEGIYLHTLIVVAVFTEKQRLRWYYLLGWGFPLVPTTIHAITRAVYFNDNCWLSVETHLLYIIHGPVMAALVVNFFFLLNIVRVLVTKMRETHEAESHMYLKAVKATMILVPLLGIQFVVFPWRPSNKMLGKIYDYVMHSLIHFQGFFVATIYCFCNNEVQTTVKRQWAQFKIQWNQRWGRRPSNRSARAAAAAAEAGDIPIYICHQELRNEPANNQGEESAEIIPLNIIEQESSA
Chain of recombinant human amylin 3 receptor (hAMYR3) (human), P30988 (O60896 24-148, chain 2 of 2, further chain): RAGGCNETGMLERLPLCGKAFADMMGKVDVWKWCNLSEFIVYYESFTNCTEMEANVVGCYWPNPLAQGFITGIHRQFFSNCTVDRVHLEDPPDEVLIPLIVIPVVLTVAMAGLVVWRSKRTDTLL

Chain of recombinant human calcitonin receptor (hCT-R) (human), P30988 (P30988 25-474): as the sequence (P30988 25-474, chain 1 of 2) above

Row | hCT-R EC50 [nM] (cAMP formation, 1321N1 cells expressing hCT-R) [1] | hAMYR3 EC50 [nM] (cAMP formation, 1321N1 cells expressing hAMYR3) [2] | Binder
1 | 1.93 nM | 0.706 nM | {C20 diacid-γGlu}-RDGTAT[Orn]ATERLA[Aad]FLQRTTF[Sar]A[NMeI]LSSTEVGSNT[Hyp]-NH2 (lactam 2-7; SMILES CC[C@H](C)[C@@H](C(=O)N[C@@H](CC(C)C)C(=O)N[C@@H](CO)C(=O)N[C@@H](CO)C(=O)N[C@H](C(=O)N[C@@H](CCC(=O)O)C(=O)N[C@H](C(=O)NCC(=O)N[C@@H](CO)C(=O)N[C@@H](CC(N)=O)C(=O)N[C@H](C(=O)N1C[C@H](O)C[C@H]1C(N)=O)[C@@H](C)O)C(C)C)[C@@H](C)O)N(C)C(=O)[C@H](C)NC(=O)CN(C)C(=O)[C@H](Cc1ccccc1)NC(=O)[C@@H](NC(=O)[C@@H](NC(=O)[C@H](CCCNC(=N)N)NC(=O)[C@H](CCC(N)=O)NC(=O)[C@H](CC(C)C)NC(=O)[C@H](Cc1ccccc1)NC(=O)[C@H](CCCC(=O)O)NC(=O)[C@H](C)NC(=O)[C@H](CC(C)C)NC(=O)[C@H](CCCNC(=N)N)NC(=O)[C@H](CCC(=O)O)NC(=O)[C@@H](NC(=O)[C@H](C)NC(=O)[C@@H]1CCCNC(=O)C[C@H](NC(=O)[C@H](CCCNC(=N)N)NC(=O)CC[C@H](NC(=O)CCCCCCCCCCCCCCCCCCC(=O)O)C(=O)O)C(=O)NCC(=O)N[C@@H]([C@@H](C)O)C(=O)N[C@@H](C)C(=O)N[C@@H]([C@@H](C)O)C(=O)N1)[C@@H](C)O)[C@@H](C)O)[C@@H](C)O) [Compound 23]
2 | 0.038 nM | 0.013 nM | {C20 diacid-γGlu}-RDGTAT[Orn]ATERLA[Aad]FLQRTTF[Sar]A[NMeI]PSSTEVGSNT[Hyp]-NH2 (lactam 2-7; SMILES CC[C@H](C)[C@@H](C(=O)N1CCC[C@H]1C(=O)N[C@@H](CO)C(=O)N[C@@H](CO)C(=O)N[C@H](C(=O)N[C@@H](CCC(=O)O)C(=O)N[C@H](C(=O)NCC(=O)N[C@@H](CO)C(=O)N[C@@H](CC(N)=O)C(=O)N[C@H](C(=O)N1C[C@H](O)C[C@H]1C(N)=O)[C@@H](C)O)C(C)C)[C@@H](C)O)N(C)C(=O)[C@H](C)NC(=O)CN(C)C(=O)[C@H](Cc1ccccc1)NC(=O)[C@@H](NC(=O)[C@@H](NC(=O)[C@H](CCCNC(=N)N)NC(=O)[C@H](CCC(N)=O)NC(=O)[C@H](CC(C)C)NC(=O)[C@H](Cc1ccccc1)NC(=O)[C@H](CCCC(=O)O)NC(=O)[C@H](C)NC(=O)[C@H](CC(C)C)NC(=O)[C@H](CCCNC(=N)N)NC(=O)[C@H](CCC(=O)O)NC(=O)[C@@H](NC(=O)[C@H](C)NC(=O)[C@@H]1CCCNC(=O)C[C@H](NC(=O)[C@H](CCCNC(=N)N)NC(=O)CC[C@H](NC(=O)CCCCCCCCCCCCCCCCCCC(=O)O)C(=O)O)C(=O)NCC(=O)N[C@@H]([C@@H](C)O)C(=O)N[C@@H](C)C(=O)N[C@@H]([C@@H](C)O)C(=O)N1)[C@@H](C)O)[C@@H](C)O)[C@@H](C)O) [Compound 24]
3 | 0.037 nM | 0.01 nM | {C20 diacid-γGlu}-RDGTAT[Orn]ATERLA[Aad]FLQRSSF[Sar]A[NMeI]PSSTEVGSNT[Hyp]-NH2 (lactam 2-7; SMILES CC[C@H](C)[C@@H](C(=O)N1CCC[C@H]1C(=O)N[C@@H](CO)C(=O)N[C@@H](CO)C(=O)N[C@H](C(=O)N[C@@H](CCC(=O)O)C(=O)N[C@H](C(=O)NCC(=O)N[C@@H](CO)C(=O)N[C@@H](CC(N)=O)C(=O)N[C@H](C(=O)N1C[C@H](O)C[C@H]1C(N)=O)[C@@H](C)O)C(C)C)[C@@H](C)O)N(C)C(=O)[C@H](C)NC(=O)CN(C)C(=O)[C@H](Cc1ccccc1)NC(=O)[C@H](CO)NC(=O)[C@H](CO)NC(=O)[C@H](CCCNC(=N)N)NC(=O)[C@H](CCC(N)=O)NC(=O)[C@H](CC(C)C)NC(=O)[C@H](Cc1ccccc1)NC(=O)[C@H](CCCC(=O)O)NC(=O)[C@H](C)NC(=O)[C@H](CC(C)C)NC(=O)[C@H](CCCNC(=N)N)NC(=O)[C@H](CCC(=O)O)NC(=O)[C@@H](NC(=O)[C@H](C)NC(=O)[C@@H]1CCCNC(=O)C[C@H](NC(=O)[C@H](CCCNC(=N)N)NC(=O)CC[C@H](NC(=O)CCCCCCCCCCCCCCCCCCC(=O)O)C(=O)O)C(=O)NCC(=O)N[C@@H]([C@@H](C)O)C(=O)N[C@@H](C)C(=O)N[C@@H]([C@@H](C)O)C(=O)N1)[C@@H](C)O) [Compound 21]
4 | 0.769 nM | 0.12 nM | {C20 diacid-γGlu}-RDGTAT[Orn]ATERLA[Aad]FLQRAAF[Sar]A[NMeI]LSSTEVGSNT[Hyp]-NH2 (lactam 2-7; SMILES CC[C@H](C)[C@@H](C(=O)N[C@@H](CC(C)C)C(=O)N[C@@H](CO)C(=O)N[C@@H](CO)C(=O)N[C@H](C(=O)N[C@@H](CCC(=O)O)C(=O)N[C@H](C(=O)NCC(=O)N[C@@H](CO)C(=O)N[C@@H](CC(N)=O)C(=O)N[C@H](C(=O)N1C[C@H](O)C[C@H]1C(N)=O)[C@@H](C)O)C(C)C)[C@@H](C)O)N(C)C(=O)[C@H](C)NC(=O)CN(C)C(=O)[C@H](Cc1ccccc1)NC(=O)[C@H](C)NC(=O)[C@H](C)NC(=O)[C@H](CCCNC(=N)N)NC(=O)[C@H](CCC(N)=O)NC(=O)[C@H](CC(C)C)NC(=O)[C@H](Cc1ccccc1)NC(=O)[C@H](CCCC(=O)O)NC(=O)[C@H](C)NC(=O)[C@H](CC(C)C)NC(=O)[C@H](CCCNC(=N)N)NC(=O)[C@H](CCC(=O)O)NC(=O)[C@@H](NC(=O)[C@H](C)NC(=O)[C@@H]1CCCNC(=O)C[C@H](NC(=O)[C@H](CCCNC(=N)N)NC(=O)CC[C@H](NC(=O)CCCCCCCCCCCCCCCCCCC(=O)O)C(=O)O)C(=O)NCC(=O)N[C@@H]([C@@H](C)O)C(=O)N[C@@H](C)C(=O)N[C@@H]([C@@H](C)O)C(=O)N1)[C@@H](C)O) [Compound 26]
5 | 0.081 nM | 0.035 nM | {C20 diacid-γGlu}-RDGTAT[Orn]ATERLAHFLQRSSF[Sar]A[NMeI]LSSTEVGSNT[Hyp]-NH2 (lactam 2-7; SMILES CC[C@H](C)[C@@H](C(=O)N[C@@H](CC(C)C)C(=O)N[C@@H](CO)C(=O)N[C@@H](CO)C(=O)N[C@H](C(=O)N[C@@H](CCC(=O)O)C(=O)N[C@H](C(=O)NCC(=O)N[C@@H](CO)C(=O)N[C@@H](CC(N)=O)C(=O)N[C@H](C(=O)N1C[C@H](O)C[C@H]1C(N)=O)[C@@H](C)O)C(C)C)[C@@H](C)O)N(C)C(=O)[C@H](C)NC(=O)CN(C)C(=O)[C@H](Cc1ccccc1)NC(=O)[C@H](CO)NC(=O)[C@H](CO)NC(=O)[C@H](CCCNC(=N)N)NC(=O)[C@H](CCC(N)=O)NC(=O)[C@H](CC(C)C)NC(=O)[C@H](Cc1ccccc1)NC(=O)[C@H](Cc1c[nH]cn1)NC(=O)[C@H](C)NC(=O)[C@H](CC(C)C)NC(=O)[C@H](CCCNC(=N)N)NC(=O)[C@H](CCC(=O)O)NC(=O)[C@@H](NC(=O)[C@H](C)NC(=O)[C@@H]1CCCNC(=O)C[C@H](NC(=O)[C@H](CCCNC(=N)N)NC(=O)CC[C@H](NC(=O)CCCCCCCCCCCCCCCCCCC(=O)O)C(=O)O)C(=O)NCC(=O)N[C@@H]([C@@H](C)O)C(=O)N[C@@H](C)C(=O)N[C@@H]([C@@H](C)O)C(=O)N1)[C@@H](C)O) [Compound 3]
6 | 0.474 nM | 0.051 nM | {C20 diacid-γGlu}-RDGTAT[Orn]ATERLA[Aad]FLTRSSF[Sar]A[NMeI]LSSTEVGSST[Hyp]-NH2 (lactam 2-7; SMILES CC[C@H](C)[C@@H](C(=O)N[C@@H](CC(C)C)C(=O)N[C@@H](CO)C(=O)N[C@@H](CO)C(=O)N[C@H](C(=O)N[C@@H](CCC(=O)O)C(=O)N[C@H](C(=O)NCC(=O)N[C@@H](CO)C(=O)N[C@@H](CO)C(=O)N[C@H](C(=O)N1C[C@H](O)C[C@H]1C(N)=O)[C@@H](C)O)C(C)C)[C@@H](C)O)N(C)C(=O)[C@H](C)NC(=O)CN(C)C(=O)[C@H](Cc1ccccc1)NC(=O)[C@H](CO)NC(=O)[C@H](CO)NC(=O)[C@H](CCCNC(=N)N)NC(=O)[C@@H](NC(=O)[C@H](CC(C)C)NC(=O)[C@H](Cc1ccccc1)NC(=O)[C@H](CCCC(=O)O)NC(=O)[C@H](C)NC(=O)[C@H](CC(C)C)NC(=O)[C@H](CCCNC(=N)N)NC(=O)[C@H](CCC(=O)O)NC(=O)[C@@H](NC(=O)[C@H](C)NC(=O)[C@@H]1CCCNC(=O)C[C@H](NC(=O)[C@H](CCCNC(=N)N)NC(=O)CC[C@H](NC(=O)CCCCCCCCCCCCCCCCCCC(=O)O)C(=O)O)C(=O)NCC(=O)N[C@@H]([C@@H](C)O)C(=O)N[C@@H](C)C(=O)N[C@@H]([C@@H](C)O)C(=O)N1)[C@@H](C)O)[C@@H](C)O) [Compound 22]
7 | 0.844 nM | 0.336 nM | {C20 diacid-γGlu}-RDGTAT[Orn]ATERLA[Aad]FLQRATF[Sar]A[NMeI]LSSTEVGSNT[Hyp]-NH2 (lactam 2-7; SMILES CC[C@H](C)[C@@H](C(=O)N[C@@H](CC(C)C)C(=O)N[C@@H](CO)C(=O)N[C@@H](CO)C(=O)N[C@H](C(=O)N[C@@H](CCC(=O)O)C(=O)N[C@H](C(=O)NCC(=O)N[C@@H](CO)C(=O)N[C@@H](CC(N)=O)C(=O)N[C@H](C(=O)N1C[C@H](O)C[C@H]1C(N)=O)[C@@H](C)O)C(C)C)[C@@H](C)O)N(C)C(=O)[C@H](C)NC(=O)CN(C)C(=O)[C@H](Cc1ccccc1)NC(=O)[C@@H](NC(=O)[C@H](C)NC(=O)[C@H](CCCNC(=N)N)NC(=O)[C@H](CCC(N)=O)NC(=O)[C@H](CC(C)C)NC(=O)[C@H](Cc1ccccc1)NC(=O)[C@H](CCCC(=O)O)NC(=O)[C@H](C)NC(=O)[C@H](CC(C)C)NC(=O)[C@H](CCCNC(=N)N)NC(=O)[C@H](CCC(=O)O)NC(=O)[C@@H](NC(=O)[C@H](C)NC(=O)[C@@H]1CCCNC(=O)C[C@H](NC(=O)[C@H](CCCNC(=N)N)NC(=O)CC[C@H](NC(=O)CCCCCCCCCCCCCCCCCCC(=O)O)C(=O)O)C(=O)NCC(=O)N[C@@H]([C@@H](C)O)C(=O)N[C@@H](C)C(=O)N[C@@H]([C@@H](C)O)C(=O)N1)[C@@H](C)O)[C@@H](C)O) [Compound 25]
